Data as given in patent US20240376151A1, “STAPLED PEPTIDES AND METHODS THEREOF” (FOG PHARMACEUTICALS, INC., priority 2022, published 2024).
Numbered stars: 1 amine (or outer) side, 2 acyl side, 3 side chain; on linkers, the order of the positions; unused ones are H or OH. Bridge positions count the residues as written; N and C are the ends. Ends that are not written are not given here. Phenylene(1,4-NHCOCH2)2 = O=C(C[*:1])Nc1ccc(NC(=O)C[*:2])cc1

Target: T1, WWP2^HECT (Homo sapiens, UniProt O00308)
T1 construct: GST-TEV (N, cleaved yes); made in house; host or cells: Escherichia coli BL21 (DE3)
Assay: Naive Library Presenter Screening (phage, NGS), WWP2^HECT
Assay type: binding
Conditions: for interaction data at Target Concentration 10: WWP2 target concentration 10 nM; for interaction data at Target Concentration 30: WWP2 target concentration 30 nM; for interaction data at Target Concentration 100: WWP2 target concentration 100 nM; for interaction data at Target Concentration 300: WWP2 target concentration 300 nM; for interaction data at Target Concentration 1000: WWP2 target concentration 1000 nM

T1 sequence (O00308 492-865): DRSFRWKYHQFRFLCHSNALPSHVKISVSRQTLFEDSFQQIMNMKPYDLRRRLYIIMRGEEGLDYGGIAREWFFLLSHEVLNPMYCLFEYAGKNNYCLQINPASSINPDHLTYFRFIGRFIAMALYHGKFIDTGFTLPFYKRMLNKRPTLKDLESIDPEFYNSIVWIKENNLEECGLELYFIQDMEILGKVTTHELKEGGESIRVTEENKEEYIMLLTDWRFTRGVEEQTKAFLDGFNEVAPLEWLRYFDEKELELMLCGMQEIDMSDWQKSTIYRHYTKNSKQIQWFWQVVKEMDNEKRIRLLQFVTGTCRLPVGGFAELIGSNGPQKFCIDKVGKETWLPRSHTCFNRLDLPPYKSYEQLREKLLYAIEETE

| Sequence | interaction data at Target Concentration 10 | interaction data at Target Concentration 30 | interaction data at Target Concentration 100 | interaction data at Target Concentration 300 | interaction data at Target Concentration 1000 (first column) | interaction data at Target Concentration 1000 (second column) |
| --- | --- | --- | --- | --- | --- | --- |
| DPAQNMCQAAADVCMFF (DPAQNMCQAAADVCMFF-NH2; linker 7-14 via Phenylene(1,4-NHCOCH2)2; N-terminus assumed; SMILES CSCC[C@H](NC(=O)[C@H](CC(N)=O)NC(=O)[C@H](CCC(N)=O)NC(=O)[C@H](C)NC(=O)[C@@H]1CCCN1C(=O)[C@@H](N)CC(=O)O)C(=O)N[C@H]1CSCC(=O)Nc2ccc(cc2)NC(=O)CSC[C@@H](C(=O)N[C@@H](CCSC)C(=O)N[C@@H](Cc2ccccc2)C(=O)N[C@@H](Cc2ccccc2)C(N)=O)NC(=O)[C@H](C(C)C)NC(=O)[C@H](CC(=O)O)NC(=O)[C@H](C)NC(=O)[C@H](C)NC(=O)[C@H](C)NC(=O)[C@H](CCC(N)=O)NC1=O) | 2 | 67 | 51 | 125 | 120 | 127 |
| DPALWECRNAAWQCWMH (linker 7-14 via Phenylene(1,4-NHCOCH2)2; not fully specified (C-terminus)) | 0 | 0 | 0 | 24 | 35 | 27 |
| DPARVDCLVAADMCHMF (DPARVDCLVAADMCHMF-NH2; linker 7-14 via Phenylene(1,4-NHCOCH2)2; N-terminus assumed; SMILES CSCC[C@H](NC(=O)[C@H](Cc1c[nH]cn1)NC(=O)[C@@H]1CSCC(=O)Nc2ccc(cc2)NC(=O)CSC[C@H](NC(=O)[C@H](CC(=O)O)NC(=O)[C@@H](NC(=O)[C@H](CCCNC(=N)N)NC(=O)[C@H](C)NC(=O)[C@@H]2CCCN2C(=O)[C@@H](N)CC(=O)O)C(C)C)C(=O)N[C@@H](CC(C)C)C(=O)N[C@@H](C(C)C)C(=O)N[C@@H](C)C(=O)N[C@@H](C)C(=O)N[C@@H](CC(=O)O)C(=O)N[C@@H](CCSC)C(=O)N1)C(=O)N[C@@H](Cc1ccccc1)C(N)=O) | 165 | 532 | 522 | 555 | 466 | 573 |
| DPAMWDCRYAALDCYMT (DPAMWDCRYAALDCYMT-NH2; linker 7-14 via Phenylene(1,4-NHCOCH2)2; N-terminus assumed; SMILES CSCC[C@H](NC(=O)[C@H](C)NC(=O)[C@@H]1CCCN1C(=O)[C@@H](N)CC(=O)O)C(=O)N[C@@H](Cc1c[nH]c2ccccc12)C(=O)N[C@@H](CC(=O)O)C(=O)N[C@H]1CSCC(=O)Nc2ccc(cc2)NC(=O)CSC[C@@H](C(=O)N[C@@H](Cc2ccc(O)cc2)C(=O)N[C@@H](CCSC)C(=O)N[C@H](C(N)=O)[C@@H](C)O)NC(=O)[C@H](CC(=O)O)NC(=O)[C@H](CC(C)C)NC(=O)[C@H](C)NC(=O)[C@H](C)NC(=O)[C@H](Cc2ccc(O)cc2)NC(=O)[C@H](CCCNC(=N)N)NC1=O) | 0 | 0 | 6 | 23 | 62 | 24 |
| DPARVNCHAAADTCFFF (linker 7-14 via Phenylene(1,4-NHCOCH2)2) | 6 | 83 | 76 | 103 |  | 123 |
| DPAAWDCRYAALACYIH (linker 7-14 via Phenylene(1,4-NHCOCH2)2 (inferred)) | 0 |  | 2 | 11 | 66 | 34 |
| DPALWECMTAADWCMFM (linker 7-14 via Phenylene(1,4-NHCOCH2)2; not fully specified (C-terminus)) | 1 | 24 | 17 | 18 | 28 | 32 |
| DPAANYCEAAADTCQFF (linker 7-14 via Phenylene(1,4-NHCOCH2)2 (inferred)) | 0 | 179 | 254 | 297 | 283 | 378 |
| DPAVWDCRYAAWDCYTN (linker 7-14 via Phenylene(1,4-NHCOCH2)2 (inferred); not fully specified (C-terminus)) | 0 | 0 | 0 | 28 | 33 | 15 |
| DPATWDCNVAAHRCWFL (linker 7-14 via Phenylene(1,4-NHCOCH2)2 (inferred); not fully specified (C-terminus)) | 1 | 0 | 12 | 60 | 40 | 75 |
| DPALIHCRAAADTCAFW (linker 7-14 via Phenylene(1,4-NHCOCH2)2; not fully specified (C-terminus)) | 87 | 318 | 384 | 608 | 419 | 565 |
| DPATWACINAAHNCWRN (DPATWACINAAHNCWRN-NH2; linker 7-14 via Phenylene(1,4-NHCOCH2)2 (inferred)) | 0 | 0 | 0 | 6 | 23 | 15 |
| DPAIWDCLYAATNCYIN (linker 7-14 via Phenylene(1,4-NHCOCH2)2; not fully specified (C-terminus)) | 0 | 0 | 0 | 8 | 12 | 20 |
| DPAYHHCLAAADLCSFF | 59 | 97 | 107 | 147 | 101 | 141 |
| DPATWDCRNAAWLCLLN (linker 7-14 via Phenylene(1,4-NHCOCH2)2 (inferred); not fully specified (C-terminus)) | 0 | 1 | 4 | 8 | 12 | 12 |
| DPALWHCLAAAETCAMF (linker 7-14 via Phenylene(1,4-NHCOCH2)2; not fully specified (C-terminus)) | 4 | 38 | 24 | 49 | 47 | 76 |
| DPALLHCMAAAQTCSFF (linker 7-14 via Phenylene(1,4-NHCOCH2)2; not fully specified (C-terminus)) | 0 | 47 | 26 | 37 | 59 | 123 |
| DPATYYCEAAAETCRFF (linker 7-14 via Phenylene(1,4-NHCOCH2)2 (inferred); not fully specified (C-terminus)) | 37 | 57 | 70 | 94 | 78 | 123 |
